Measured values published in patent publication US20200157236A1 (CELLDEX THERAPEUTICS, published 2020).

Target: T1, purified ALK protein (BLitz, Table 20) (Homo sapiens (Human), UniProt Q9UM73 19-1038, limits assumed)
T1 construct: also called purified ALK proteins
Assay: BLI (BLitz), mAb on Protein A tip, purified ALK in solution
Method in brief: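 Humanized anti-ALK mAbs loaded at 0.5 mg/mL on Protein A tips; after stable baseline, purified ALK protein at 70 μg/mL added. Kinetic traces fit to a single binding site model to give monovalent KD.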

T1 sequence (Q9UM73 19-1038 limits assumed): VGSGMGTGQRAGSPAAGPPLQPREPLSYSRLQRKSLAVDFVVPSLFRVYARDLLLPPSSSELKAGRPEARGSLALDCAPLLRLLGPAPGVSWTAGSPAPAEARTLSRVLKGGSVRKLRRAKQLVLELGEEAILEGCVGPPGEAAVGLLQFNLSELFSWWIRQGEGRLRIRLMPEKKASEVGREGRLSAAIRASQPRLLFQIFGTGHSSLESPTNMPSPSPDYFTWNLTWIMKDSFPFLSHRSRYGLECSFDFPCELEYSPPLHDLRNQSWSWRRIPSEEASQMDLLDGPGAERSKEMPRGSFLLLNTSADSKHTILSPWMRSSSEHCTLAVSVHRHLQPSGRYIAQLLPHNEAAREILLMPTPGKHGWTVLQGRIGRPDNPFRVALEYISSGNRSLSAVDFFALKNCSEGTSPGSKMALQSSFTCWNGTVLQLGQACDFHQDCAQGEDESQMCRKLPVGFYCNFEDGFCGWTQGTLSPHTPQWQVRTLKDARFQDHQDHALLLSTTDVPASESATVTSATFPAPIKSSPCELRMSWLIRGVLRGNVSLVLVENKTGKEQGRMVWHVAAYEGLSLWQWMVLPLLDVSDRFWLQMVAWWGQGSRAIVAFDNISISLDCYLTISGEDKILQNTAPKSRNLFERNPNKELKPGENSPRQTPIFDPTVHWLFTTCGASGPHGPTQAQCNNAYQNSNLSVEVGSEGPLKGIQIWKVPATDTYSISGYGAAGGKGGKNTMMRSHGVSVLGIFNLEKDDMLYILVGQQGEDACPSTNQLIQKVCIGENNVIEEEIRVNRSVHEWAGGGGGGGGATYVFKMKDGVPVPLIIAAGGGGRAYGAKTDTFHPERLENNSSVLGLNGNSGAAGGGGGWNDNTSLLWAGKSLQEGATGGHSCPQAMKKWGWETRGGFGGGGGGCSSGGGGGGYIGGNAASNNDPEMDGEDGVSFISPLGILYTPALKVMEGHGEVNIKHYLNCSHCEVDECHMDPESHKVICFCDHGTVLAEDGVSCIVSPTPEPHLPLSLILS

Row | Kd [nM] | Binder
1 | 247 | Ab424 (antibody, V domains shown, humanized) VH: EVQLVQSGPEVKKPGTSVKLSCKASGYTFTSYWMHWVRQARGQRLEWIGYIKPSSGYTKYNQKFKDRATLTADKSTSTAYMELSSLRSEDTAVYYCARDYYGSSSWFAYWGQGTLVTVSS VL: EIVMTQSPATLSTSPGERATLSCRASQSVSSNLAWYQQKPGQAPRALIYSASYRYSGVPARFSGSGSGTDFTLTISSVEPEDFAVYYCQQYNSYPYMYTFGQGTKLEIK
2 | 211 | Ab430 (antibody, V domains shown, humanized) VH: EVQLVQSGAEVKKPGASVKLSCKASGYTFTSYWMHWVRQAPGQGLEWIGYIKPSSGYTKYAQKLQGRVTLTADKSTSTAYMELRSLRSDDTAVYYCARDYYGSSSWFAYWGQGTLVTVSS VL: EIVMTQSPATLSTSPGERATLSCRASQSVSSNLAWYQQKPGQAPRALIYSASYRYSGVPARFSGSGSGTDFTLTISSVEPEDFAVYYCQQYNSYPYMYTFGQGTKLEIK
3 | 329 | Ab434 (antibody, V domains shown, humanized) VH: EVQLVQSGAEVKKPGSSVKLSCKASGYTFSSYWMHWVKQAPGQGLEWIGYIKPSSGYTKYAQKFQGRVTLTADKSTSTAYMELSSLRSEDTAVYYCARDYYGSSSWFAYWGQGTLVTVSS VL: EIVMTQSPATLSTSPGERATLSCRASQSVSSNLAWYQQKPGQAPRALIYSASYRYSGVPARFSGSGSGTDFTLTISSVEPEDFAVYYCQQYNSYPYMYTFGQGTKLEIK
4 | 868 | Ab426 (antibody, V domains shown, humanized) VH: EVQLVQSGAEVKKPGTSVKLSCKASGYTFTSYWMHWVRQARGQRLEWIGYIKPSSGYTKYAQKFQERVTLTADKSTSTAYMELSSLRSEDTAVYYCARDYYGSSSWFAYWGQGTLVTVSS VL: EIVMTQSPATLSTSPGERATLSCRASQSVSSNLAWYQQKPGQAPRALIYSASYRYSGVPARFSGSGSGTDFTLTISSVEPEDFAVYYCQQYNSYPYMYTFGQGTKLEIK
5 | 138 | Ab440 (antibody, V domains shown, humanized) VH: EVQLVQSGAEVKKPGASVKLSCKASGYTFTSYWMHWVRQAPGQGLEWIGYIKPSSGYTKYNQKFKDKATLTADKSTSTAYMELRSLRSDDTAVYYCARDYYGSSSWFAYWGQGTLVTVSS VL: EIVMTQSQATMSTSVGERATLSCKASQNVGTNVAWYQQKPGQSPKALIYGASTRATGVPARFSGSGSGTDFTLTISSVEPEDFAVYYCQQYNSYPYMYTFGQGTKLEIK
6 | 197 | Ab433 (antibody, V domains shown, humanized) VH: EVQLVQSGAEVKKPGSSVKVSCKASGYTFSSYWMHWVRQAPGQGLEWIGYIKPSSGYTKYNQKFKDKATLTADKSTSTAYMELSSLRSEDTAVYYCARDYYGSSSWFAYWGQGTLVTVSS VL: EIVMTQSPATLSTSPGERATLSCRASQSVSSNLAWYQQKPGQAPRALIYSASYRYSGVPARFSGSGSGTDFTLTISSVEPEDFAVYYCQQYNSYPYMYTFGQGTKLEIK
7 | 2290 | Ab425 (antibody, V domains shown, humanized) VH: EVQLVQSGAEVKKPGTSVKLSCKASGYTFTSSAMQWVKQAPGQGLEWIGYIKPSSGYTKYNQKFKDKATLTADKSTSTAYMELSSLRSEDTAVYYCARDYYGSSSWFAYWGQGTLVTVSS VL: EIVMTQSPATLSTSPGERATLSCRASQSVSSNLAWYQQKPGQAPRALIYSASYRYSGVPARFSGSGSGTDFTLTISSVEPEDFAVYYCQQYNSYPYMYTFGQGTKLEIK
8 | 167 | Ab441 (antibody, V domains shown, humanized) VH: EVQLVQSGAEVAKPGASVKLSCKASGYTFTSYWMHWVRQAPGQGLEWIGYIKPSSGYTKYNQKFKDKATLTADKSTSTAYMELRSLRSDDTAVYYCARDYYGSSSWFAYWGQGTLVTVSS VL: EIVMTQSQATMSTSVGERATLSCKASQNVGTNVAWYQQKPGQSPKALIYGASTRATGVPARFSGSGSGTDFTLTISSVEPEDFAVYYCQQYNSYPYMYTFGQGTKLEIK
9 | 162 | Ab427 (antibody, V domains shown, humanized) VH: QVQLVQSGAEVAKPGASVKLSCKASGYTFTSYWMHWVKQAPGQGLEWIGYIKPSSGYTKYNQKFKDKATLTADKSTSTAYMELRSLRSDDTAVYYCARDYYGSSSWFAYWGQGTLVTVSS VL: EIVMTQSPATLSTSPGERATLSCRASQSVSSNLAWYQQKPGQAPRALIYSASYRYSGVPARFSGSGSGTDFTLTISSVEPEDFAVYYCQQYNSYPYMYTFGQGTKLEIK
10 | 521 | Ab445 (antibody, V domains shown, humanized) VH: EVQLVQSGAEVKKPGSSVKVSCKASGYTFSSYWMHWVRQAPGQGLEWIGYIKPSSGYTKYNQKFKDKATLTADKSTSTAYMELSSLRSEDTAVYYCARDYYGSSSWFAYWGQGTLVTVSS VL: EIVMTQSQATMSTSVGERATLSCKASQNVGTNVAWYQQKPGQSPKALIYGASTRATGVPARFSGSGSGTDFTLTISSVEPEDFAVYYCQQYNSYPYMYTFGQGTKLEIK
11 | 236 | Ab444 (antibody, V domains shown, humanized) VH: EVQLVQSGAEVKKPGSSVKLSCKASGYTFTSYWMHWVRQAPGQGLEWIGYIKPSSGYTKYNQKFKDKATLTADKSTSTAYMELSSLRSEDTAVYYCARDYYGSSSWFAYWGQGTLVTVSS VL: EIVMTQSQATMSTSVGERATLSCKASQNVGTNVAWYQQKPGQSPKALIYGASTRATGVPARFSGSGSGTDFTLTISSVEPEDFAVYYCQQYNSYPYMYTFGQGTKLEIK
12 | 326 | Ab429 (antibody, V domains shown, humanized) VH: EVQLVQSGAEVAKPGASVKLSCKASGYTFTSYWMHWVRQAPGQGLEWIGYIKPSSGYTKYNQKFKDKATLTADKSTSTAYMELRSLRSDDTAVYYCARDYYGSSSWFAYWGQGTLVTVSS VL: EIVMTQSPATLSTSPGERATLSCRASQSVSSNLAWYQQKPGQAPRALIYSASYRYSGVPARFSGSGSGTDFTLTISSVEPEDFAVYYCQQYNSYPYMYTFGQGTKLEIK
13 | 337 | Ab432 (antibody, V domains shown, humanized) VH: EVQLVQSGAEVKKPGSSVKLSCKASGYTFTSYWMHWVRQAPGQGLEWIGYIKPSSGYTKYNQKFKDKATLTADKSTSTAYMELSSLRSEDTAVYYCARDYYGSSSWFAYWGQGTLVTVSS VL: EIVMTQSPATLSTSPGERATLSCRASQSVSSNLAWYQQKPGQAPRALIYSASYRYSGVPARFSGSGSGTDFTLTISSVEPEDFAVYYCQQYNSYPYMYTFGQGTKLEIK
14 | 253 | Ab428 (antibody, V domains shown, humanized) VH: EVQLVQSGAEVKKPGASVKLSCKASGYTFTSYWMHWVRQAPGQGLEWIGYIKPSSGYTKYNQKFKDKATLTADKSTSTAYMELRSLRSDDTAVYYCARDYYGSSSWFAYWGQGTLVTVSS VL: EIVMTQSPATLSTSPGERATLSCRASQSVSSNLAWYQQKPGQAPRALIYSASYRYSGVPARFSGSGSGTDFTLTISSVEPEDFAVYYCQQYNSYPYMYTFGQGTKLEIK
15 | 145 | Ab443 (antibody, V domains shown, humanized) VH: QVQLVQSGAEVAKPGSSVKLSCKASGYTFTSYWMHWVKQAPGQGLEWIGYIKPSSGYTKYNQKFKDKATLTADKSTSTAYMELSSLRSEDTAVYYCARDYYGSSSWFAYWGQGTLVTVSS VL: EIVMTQSQATMSTSVGERATLSCKASQNVGTNVAWYQQKPGQSPKALIYGASTRATGVPARFSGSGSGTDFTLTISSVEPEDFAVYYCQQYNSYPYMYTFGQGTKLEIK
16 | 252 | Ab431 (antibody, V domains shown, humanized) VH: QVQLVQSGAEVAKPGSSVKLSCKASGYTFTSYWMHWVKQAPGQGLEWIGYIKPSSGYTKYNQKFKDKATLTADKSTSTAYMELSSLRSEDTAVYYCARDYYGSSSWFAYWGQGTLVTVSS VL: EIVMTQSPATLSTSPGERATLSCRASQSVSSNLAWYQQKPGQAPRALIYSASYRYSGVPARFSGSGSGTDFTLTISSVEPEDFAVYYCQQYNSYPYMYTFGQGTKLEIK
